Measured values from patent US20220073643A1 (NANJING GENSCRIPT BIOTECH, published 2022).
Where two headings read alike, the source gives them in different places.

Columns and labels:
human Claudin18.2 [1] = molecular target: T1, human Claudin18.2 (human); assay: FACS, Claudin18.2-HEK293 cells
T1 construct: also called CLDN18.2
Protocol: (§1) The binding of chimeric antibodies to Claudin18.2 expressed on HEK293 cells was determine by FACS analysis. Briefly, HEK293 cells expressing human Claudin18.2 as prepared in the foregoing Example were harvested and incubated with anti-Claudin18.2 mAbs at 4° C. for 40 min, followed by fluorophore (iFluor 647)-labeled goat […] IgG (H+L) secondary antibodies at 4° C. for 0.5 hour. The samples were then analyzed by flow cytometry.
After initial screening of cell binding with transfected supernatants, the binding pattern of chimeric and up to 3 humanized antibodies on Claudin18.2 expressed on HEK293 cells were plotted with antibody in 3× serial dilutions, starting concentration of 45 μg/ml, following the protocol described in Example 3.

human Claudin18.2 [2] = molecular target: T1, human Claudin18.2; assay: cell-based or functional assay
human Claudin18.2 [3] = molecular target: T1, human Claudin18.2; assay: FACS, Claudin18.2-HEK293 cells; remark: listed apart in the source
Protocol: as §1

human Claudin18.2 [4] = molecular target: T1, human Claudin18.2; assay: cell-based or functional assay; remark: listed apart in the source

| Binder | EC50 (human Claudin18.2 [1]) | Span (human Claudin18.2 [1]) | CDC % Relative activity (human Claudin18.2 [2]) | CDC EC50 (human Claudin18.2 [2]) | EC50 (human Claudin18.2 [3]) | ADCC % Relative activity (human Claudin18.2 [4]) | ADCC EC50 (human Claudin18.2 [4]) |
| --- | --- | --- | --- | --- | --- | --- | --- |
| chimeric 207F8G5 (antibody, human IgG1, kappa, V domains shown, chimeric, human IgG1/kappa constant regions; also called 207F8G5-Chimeric) VH: QAYLQQSGAELVRSGASVKMSCKASGFTFTSYNIHWVKQTPGQGLEWIGYISPGNGGSNYNLKFKDKATLTSATSSSTAYMQISSLTSEDSAVYFCATGRGFAYWGQGTLVTVSA VL: DIVMTQSPSSLTVTPGEKVTMSCKSSQSLFNSGNQKNYLIWYQQKPGQPPKLLIYRASTRDSGVPDRFTGSGSGTDFTLTISNVQAEDLAIYYCQNDYSYPLTFGAGTKLELKR | 0.17 µg/mL | 11800 | 1300% | 0.207 µg/mL | 0.554 nM | 114% | 0.0214 µg/mL |
| chimeric 237D2A4 (antibody, human IgG1, kappa, V domains shown, chimeric, human IgG1/kappa constant regions; also called 237D2A4-Chimeric) VH: QVQLKESGPGLVAPSQSLSITCTVSGFSLTSYGVSWVRQPPGKGLEWLGVIWGDGSTNYHSTLISRLRISKDKSKSQVFLKLNSLQTDDTATYYCAKAGRGNALDYWGQGTSVTVSS VL: DIVMTQSPSSLTVTAGEKVTMSCKSSQSLLNSGNQKNYLTWYQQKPGQPPKLLIYWASTRESGVPDRFTGSGSGTDFTLTISSVQAEDLAVYYCQNDYSFPLTFGAGTKLELKR | 0.0923 µg/mL | 14800 | 1170% | 0.231 µg/mL | 0.596 nM | 169% | 0.0214 µg/mL |
| chimeric 246B5F2 (antibody, human IgG1, kappa, V domains shown, chimeric, human IgG1/kappa constant regions; also called 246B5F2-Chimeric) VH: EVMLVESGGGLMKPGGSLKLSCAASEFTFSNYAMSWVRQTPEKRLEWVATISSGRSSTYYPDSVKGRFTISRDNAKNTLYLQMSSLRSEDTAMYYCAGLGRGNAMEYWGQGTSVTVSS VL: DIVMTQSPSSLTVTAGEKVTLSCKSSQSLLNSGNQKNYLTWYQQKPGQPPKLLIYWASTRESGVPDRFTGSGSGTDFILTINSVQAEDLAVYYCQNAYSYPFTFGSGTKLEIKR | 0.192 µg/mL | 12400 | 985% | 0.274 µg/mL | 1.24 nM | 157% | 0.023 µg/mL |
| chimeric 273C10E5 (antibody, human IgG1, kappa, V domains shown, chimeric, human IgG1/kappa constant regions) VH: QVQLQQSGAELVKPGASVKLSCKASGYTFTSFGINWLRQRPEQGLEWIGWIFPGDGNSKYNENFKGKATLTTDKSSSTAYMQVTRLTSEDSAVYFCARFYYGNSFANWGQGTLVTVSA VL: DIVMTQSPSSLTVTAGEKVTMSCKSSQSLLNSGNQKNYLTWYQQKPGQPPKLLIYWAATRESGVPDRFAGSGSGTDFTLTISSVQAEDLAVYYCQNDYFYPFTFGAGTKLELKR |  |  | 854% | 0.269 µg/mL | 1.01 nM | 92.1% | 0.0275 µg/mL |
| chimeric 370E2B12C3 (antibody, human IgG1, kappa, V domains shown, chimeric, human IgG1/kappa constant regions; also called 370E2B12C3-chimeric) VH: QVQLKESGPGLVAPSQSLSITCTVSGFSLTTYGVHWVRQPPGKGLEWLGVIWAGGSTNYNSALMSRVSINKDNSKSQVFIKMNSLQADDTALYYCARAAYYGNGLDYWGQGTTLTVSS VL: DIVMTQSPSSLTVTAGEKVTMSCKSSQTLLNSGNQKNYLTWYQQKPGQPPKLLIYWASTGESGVPDRFTGSGSGTDFTLTISSVQAEDLAVYFCQNAYFYPFTFGGGTKLEIKR | 0.772 µg/mL | 4570 | 1200% | 0.192 µg/mL | 0.792 nM | 75.7% | 0.0335 µg/mL |
| chimeric 185F2G12 (antibody, human IgG1, kappa, V domains shown, chimeric, human IgG1/kappa constant regions) VH: QAYLQQSGAELVRSGASVKMSCKASGYTFTSYNMHWVRQTPGQGLEWIGYIYPGNGGTNYSQKFKGKASLTADTSSTTAYMQISSLTSEDSAVYFCATGRGFAYWGQGTLVTVSA VL: DIVMTQSPSSLTVTAGEKVTLSCKSSQSLFNTGNQKNYLTWYQQKPGQPPKLLIFRASTRESGVPDRFTGSGFGTDFTLTISSVQAEDLAVYYCQNDFSYPLTFGAGTKLELKR |  |  | 2100% | 0.101 µg/mL | 0.634 nM | 399% | 0.00886 µg/mL |
